In patent publication US20260028403A1 (Zymeworks, published 2026):

T1: Mouse CLDN18 A2.1 (mouse, UniProt P56857 10-264)
T1 construct: on transfected HEK293-6E cells; also called Mouse CLDN18 2.1; mouse CLDN18.2 ortholog
T1 chain: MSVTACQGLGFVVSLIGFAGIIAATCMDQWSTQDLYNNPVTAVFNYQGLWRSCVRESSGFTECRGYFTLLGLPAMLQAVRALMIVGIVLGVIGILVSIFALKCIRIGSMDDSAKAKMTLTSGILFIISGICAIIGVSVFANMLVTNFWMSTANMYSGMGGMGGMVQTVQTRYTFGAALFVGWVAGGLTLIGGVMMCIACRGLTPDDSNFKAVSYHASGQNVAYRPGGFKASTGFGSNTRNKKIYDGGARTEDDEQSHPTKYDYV

T2: Cynomolgus monkey CLDN18 (cynomolgus monkey)
T2 construct: on transfected HEK293-6E cells; also called Cyno CLDN18; cyno CLDN18.2 ortholog
T2 chain: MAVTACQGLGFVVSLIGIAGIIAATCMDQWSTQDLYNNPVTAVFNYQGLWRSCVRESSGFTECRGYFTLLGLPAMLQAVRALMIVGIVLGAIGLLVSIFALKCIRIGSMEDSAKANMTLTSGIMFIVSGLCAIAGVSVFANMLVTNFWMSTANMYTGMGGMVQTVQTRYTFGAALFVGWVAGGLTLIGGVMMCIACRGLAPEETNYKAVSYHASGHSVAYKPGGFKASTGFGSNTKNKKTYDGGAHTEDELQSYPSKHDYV


How the values were obtained:
Mouse CLDN18 A2.1 = target: T1, Mouse CLDN18 A2.1; test: flow cytometry, HEK293-6E + mouse CLDN18, 4PL fit
Method: (§1) The purified rabbit chimeric and humanized constructs were assessed for binding to HEK293-6E cells transfected with human, cynomolgus monkey, or mouse CLDN18.2 orthologs (TABLE 12) by flow cytometry. […] Constructs were also assessed for binding to HEK293-6E cells transfected with human CLDN18.1.

Human CLDN18.2 [1] = target: T3, Human CLDN18.2 (human); test: flow cytometry, HEK293-6E + human CLDN18.2, 4PL fit
T3 construct: on transfected HEK293-6E cells or native on SNU 601 cells
Method: as §1

Cynomolgus monkey CLDN18 = target: T2, Cynomolgus monkey CLDN18; test: flow cytometry, HEK293-6E + cyno CLDN18, 4PL fit
Method: as §1

Human CLDN18.2 [2] = target: T3, Human CLDN18.2; test: flow cytometry, SNU 601 cells
[3] = target: T4, CD28 on primary human T cells (human, UniProt P10747 19-220); test: cell-based or functional assay
[4] = target: T4, CD28 on primary human T cells; test: cell-based or functional assay; remark: listed apart in the source
[5] = target: T4, CD28 on primary human T cells; test: cell-based or functional assay; remark: listed apart in the source
[6] = target: T5, Recombinant human/cynomolgus/rhesus macaque CD28 mouse IgG2a Fc fusion protein (Acro Biosystems) (human/cynomolgus/rhesus macaque, UniProt P10747 19-152); test: SPR, in-format anti-CD28 variants, huCD28
T5 construct: bought; also called huCD28

| Binder | Bmax (Mouse CLDN18 A2.1) | EC50 (Mouse CLDN18 A2.1) [nM] | Bmax (Human CLDN18.2 [1]) | EC50 (Human CLDN18.2 [1]) [nM] | Bmax (Cynomolgus monkey CLDN18) | EC50 (Cynomolgus monkey CLDN18) [nM] | IFNg EC50, T cells + SNU 601 [3] [nM] | IFNg maximum cytokine, T cells + SNU 601 [3] [pg/mL] | IL-2 EC50, T cells + SNU 601 [3] [nM] | IL-2 maximum cytokine, T cells + SNU 601 [3] [pg/mL] | IFNg mean cytokine, T cells alone, 45 nM construct [5] [pg/mL] | IL-2 mean cytokine, T cells alone, 45 nM construct [5] [pg/mL] | Fold-change from WT [6] [fold] | Kd [6] [nM] | other results |
| --- | --- | --- | --- | --- | --- | --- | --- | --- | --- | --- | --- | --- | --- | --- | --- |
| v37408 (antibody, human IgG1, V domains shown, human IgG1-based monoclonal antibody; also called H4-L2) VH: QVQLVESGGGLVQPGGSLRLSCSVSGIDLSSNPMIWVRQAPGKGLEYIGIIDTDGSTYYADWAKGRFTISKDSTTVYLQMNSLRAEDTAVYYCARRLHGSSNGYYDDLWGQGTLVTVSS VL: DGQMTQSPSSVSASVGDRVTITCQASQSIYSYLSWYQQKPGQRPKLLIYKASTLASGVPSRFSGSGSGTDFTLTISSVQPEDAATYYCQQGYTVTNVDKNTFGGGTKVEVK | 1920 | 2.65 | 2190 | 1.87 | 1520 | 0.36 | – | – | – | – | – | – | – | – | – |
| v37409 (antibody, human IgG1, V domains shown, human IgG1-based monoclonal antibody; also called H2-L4) VH: QVQLVESGGGLVQPGGSLRLSCSVSGIDLSSNPMIWVRQAPGKGLEYIGIIDTDGSTYYADWAKGRFTISKDSSKNTVYLQMNSLRAEDTAVYYCARRLHGSSNGYYDDLWGQGTLVTVSS VL: DGQMTQSPSSVSASVGDRVTITCQASQSIYSYLSWYQQKPGQRPKLLIYKASTLASGVPSRFSGSGSGTDFTLTISSVQPEDFATYYCQQGYTVTNVDKNTFGGGTKVEIK | 1530 | 0.89 | 1960 | 1.22 | 1500 | 0.35 | – | – | – | – | – | – | – | – | – |
| v37410 (antibody, human IgG1, V domains shown, human IgG1-based monoclonal antibody; also called H3-L4) VH: QVQLVESGGGLVQPGGSLRLSCSVSGIDLSSNPMIWVRQAPGKGLQYIGIIDTDGSTYYADWAKGRFTISKDSSKNTVYLQMNSLRAEDTAVYYCARRLHGSSNGYYDDLWGQGTLVTVSS VL: DGQMTQSPSSVSASVGDRVTITCQASQSIYSYLSWYQQKPGQRPKLLIYKASTLASGVPSRFSGSGSGTDFTLTISSVQPEDFATYYCQQGYTVTNVDKNTFGGGTKVEIK | 1690 | 1.02 | 1910 | 0.97 | 1500 | 0.31 | – | – | – | – | – | – | – | – | – |
| v37411 (antibody, human IgG1, V domains shown, human IgG1-based monoclonal antibody; also called H5-L4; anti-CLDN18.2 mAb) VH: QVQLVESGGGLVQPGGSLRLSCSVSGIDLSSNPMIWVRQAPGKGLQYIGIIDTDGSTYYADWAKGRFTISKDSTTVYLQINSPRAEDTAVYYCARRLHGSSNGYYDDLWGQGTLVTVSS VL: DGQMTQSPSSVSASVGDRVTITCQASQSIYSYLSWYQQKPGQRPKLLIYKASTLASGVPSRFSGSGSGTDFTLTISSVQPEDFATYYCQQGYTVTNVDKNTFGGGTKVEIK | 1790 | 1.03 | 2170 | 1.05 | 1730 | 0.37 | – | – | – | – | – | – | – | – | Bmax (Human CLDN18.2 [2]): 11700 MFI; EC50 (Human CLDN18.2 [2]): 8.9 nM |

More lines, main results first:

| Bmax (Mouse CLDN18 A2.1) | EC50 (Mouse CLDN18 A2.1) [nM] | Bmax (Human CLDN18.2 [1]) | EC50 (Human CLDN18.2 [1]) [nM] | Bmax (Cynomolgus monkey CLDN18) | EC50 (Cynomolgus monkey CLDN18) [nM] | IFNg EC50, T cells + SNU 601 [3] [nM] | IFNg maximum cytokine, T cells + SNU 601 [3] [pg/mL] | IL-2 EC50, T cells + SNU 601 [3] [nM] | IL-2 maximum cytokine, T cells + SNU 601 [3] [pg/mL] | IFNg mean cytokine, T cells alone, 45 nM construct [5] [pg/mL] | IL-2 mean cytokine, T cells alone, 45 nM construct [5] [pg/mL] | Fold-change from WT [6] [fold] | Kd [6] [nM] | Binder | other results |
| --- | --- | --- | --- | --- | --- | --- | --- | --- | --- | --- | --- | --- | --- | --- | --- |
| – | – | – | – | – | – | 0.604 | 3290 | 1.56 | 5240 | 0.9 | 1.8 | 225 | 9510 | v38990 (trispecific antibody, human IgG1, kappa, L234A L235A, also called v37642 format, CD28 VH Y1113S) heavy 1: not shown heavy 2: EVQLVESGGGLVQPGGSLRLSCAASGVTFNYYGMSWIRQAPGKGLEWVASITSSGGRIYYPDSVKGRFTISRENTQKTLYLQMNSLRAEDTAVYYCTLDGRDGWVAYWGQGTLVTVSSGGGGSGGGGSGGGGSGGGGSNFMLTQPHSVSESPGKTVTISCKRNTGNIGSNYVNWYQQHEGSSPTTIIYRNDKRPDGVSDRFSGSIDRSSKSASLTISNLKTEDEADYFCQSYSSGFIFGGGTKLTVLAAEPKSSDKTHTCPPCPAPEAAGGPSVFLFPPKPKDTLMISRTPEVTCVVVSVSHEDPEVKFNWYVDGVEVHNAKTKPREEQYNSTYRVVSVLTVLHQDWLNGKEYKCKVSNKALPAPIEKTISKAKGQPREPQVYVLPPSRDELTKNQVSLLCLVKGFYPSDIAVEWESNGQPENNYLTWPPVLDSDGSFFLYSKLTVDKSRWQQGNVFSCSVMHEALHNHYTQKSLSLSPG light: DIQMTQSPSSLSASVGDRVTITCRASESVEYYVTSLMQWYQQKPGKAPKLLIYAASNVDSGVPSRFSGSGSGTDFTLTISSLQPEDIATYYCQQSRKVPFTFGGGTKVEIKRTVAAPSVFIFPPSDEQLKSGTASVVCLLNNFYPREAKVQWKVDNALQSGNSQESVTEQDSKDSTYSLSSTLTLSKADYEKHKVYACEVTHQGLSSPVTKSFNRGEC | IC50, TDCC on SNU 601-RFP, 1:5 E:T [4]: 0.145 nM; IC50, TDCC on SNU 601-RFP, 2:1 E:T [4]: 0.00358 nM; Maximum Mean Cytotoxicity (%), 1:5 E:T [4]: 95.4%; Maximum Mean Cytotoxicity (%), 2:1 E:T [4]: 97.8% |
| – | – | – | – | – | – | 0.0793 | 4450 | 0.0287 | 8410 | 475 | 1520 | 3.4 | 144 | v38993 (trispecific antibody, human IgG1, kappa, L234A L235A, also called v37642 format, CD28 VH L1112aN) heavy 1: not shown heavy 2: EVQLVESGGGLVQPGGSLRLSCAASGVTFNYYGMSWIRQAPGKGLEWVASITSSGGRIYYPDSVKGRFTISRENTQKTLYLQMNSLRAEDTAVYYCTLDGRDGWVAYWGQGTLVTVSSGGGGSGGGGSGGGGSGGGGSNFMLTQPHSVSESPGKTVTISCKRNTGNIGSNYVNWYQQHEGSSPTTIIYRNDKRPDGVSDRFSGSIDRSSKSASLTISNLKTEDEADYFCQSYSSGFIFGGGTKLTVLAAEPKSSDKTHTCPPCPAPEAAGGPSVFLFPPKPKDTLMISRTPEVTCVVVSVSHEDPEVKFNWYVDGVEVHNAKTKPREEQYNSTYRVVSVLTVLHQDWLNGKEYKCKVSNKALPAPIEKTISKAKGQPREPQVYVLPPSRDELTKNQVSLLCLVKGFYPSDIAVEWESNGQPENNYLTWPPVLDSDGSFFLYSKLTVDKSRWQQGNVFSCSVMHEALHNHYTQKSLSLSPG light: DIQMTQSPSSLSASVGDRVTITCRASESVEYYVTSLMQWYQQKPGKAPKLLIYAASNVDSGVPSRFSGSGSGTDFTLTISSLQPEDIATYYCQQSRKVPFTFGGGTKVEIKRTVAAPSVFIFPPSDEQLKSGTASVVCLLNNFYPREAKVQWKVDNALQSGNSQESVTEQDSKDSTYSLSSTLTLSKADYEKHKVYACEVTHQGLSSPVTKSFNRGEC | koff [6]: 0.00817 s⁻¹; kon [6]: 59000 M⁻¹ s⁻¹ |
| – | – | – | – | – | – | 0.023 | 3990 | 0.00916 | 5560 | 559 | 1690 | 3.1 | 130 | v38992 (trispecific antibody, human IgG1, kappa, L234A L235A, also called v37642 format, CD28 VH G1064S) heavy 1: not shown heavy 2: EVQLVESGGGLVQPGGSLRLSCAASGVTFNYYGMSWIRQAPGKGLEWVASITSSGGRIYYPDSVKGRFTISRENTQKTLYLQMNSLRAEDTAVYYCTLDGRDGWVAYWGQGTLVTVSSGGGGSGGGGSGGGGSGGGGSNFMLTQPHSVSESPGKTVTISCKRNTGNIGSNYVNWYQQHEGSSPTTIIYRNDKRPDGVSDRFSGSIDRSSKSASLTISNLKTEDEADYFCQSYSSGFIFGGGTKLTVLAAEPKSSDKTHTCPPCPAPEAAGGPSVFLFPPKPKDTLMISRTPEVTCVVVSVSHEDPEVKFNWYVDGVEVHNAKTKPREEQYNSTYRVVSVLTVLHQDWLNGKEYKCKVSNKALPAPIEKTISKAKGQPREPQVYVLPPSRDELTKNQVSLLCLVKGFYPSDIAVEWESNGQPENNYLTWPPVLDSDGSFFLYSKLTVDKSRWQQGNVFSCSVMHEALHNHYTQKSLSLSPG light: DIQMTQSPSSLSASVGDRVTITCRASESVEYYVTSLMQWYQQKPGKAPKLLIYAASNVDSGVPSRFSGSGSGTDFTLTISSLQPEDIATYYCQQSRKVPFTFGGGTKVEIKRTVAAPSVFIFPPSDEQLKSGTASVVCLLNNFYPREAKVQWKVDNALQSGNSQESVTEQDSKDSTYSLSSTLTLSKADYEKHKVYACEVTHQGLSSPVTKSFNRGEC | koff [6]: 0.00738 s⁻¹; kon [6]: 59800 M⁻¹ s⁻¹ |
